“And” between values parts separate entries of the source, which are not always exact repeats. Equal values may be shown once.
Target: SARS-CoV-2 spike receptor-binding domain, prototype (RBD-WT) (SARS-CoV-2, UniProt P0DTC2 333-528)
Test: BLI

B1: VYD222 Fab (Fab, V domains shown)
VH: EVQLVESGGGLVKPGGSLRLSCAASGFTFGSYEMNWVRQAPGKGLEWVSSISEDGYSTYYPDSLKGRFTISRDSAKNSLYLQMNSLRADDTAVYYCARDFGGDTAWAGTGFTYWGQGTLVTVSS
VL: QSVLTQPPSVSGAPGQRITISCTGSSSNIGAGYDVHWYQQLPGTAPKLLIYGSSSRNYGVPDRFSGSKSGTSASLAITGLQAEDEADYYCQSYDSDLGVLYTFGTGTKVTVL
- Kd: 5.4 nM and 5 nM

B2: ADI-77310 Fab (Fab, V domains shown)
VH: EVQLVESGGGLVKPGGSLRLSCAASGFTFGSYYMNWVRQAPGKGLEWVSSISEDGYSTYYPDSLKGRFTISRDSAKNSLYLQMNSLRADDTAVYYCARDFGGHTAWAGTGFTYWGQGTLVTVSS
VL: QSVLTQPPSVSGAPGQRITISCTGSSSNIGAGYDVHWYQQLPGTAPKLLIYGSSSRNSGVPDRFSGSKSGTSASLAITGLQAEDEADYYCQSYDSDLSVLYTFGTGTKVTVL
- Kd: 1 nM and 0.8 nM

From paper doi:10.1101/2025.08.28.672883 (2025)
